Measurements as given in patent US20040076958.

B1: His-tagged BDTK(38-319), BDTK kinase domain (protein)
chain: KKIGGGGFGEIYEAMDLLTRENVALKVESAQQPKQVLKMEVAVLKKLQGKDHVCRFIGCGRNEKFNYVVMQLQGRNLADLRRSQPRGTFTLSTTLRLGKQILESIEAIHSVGFLHRDIKPSNFAMGRLPSTYRKCYMLDFGLARQYTNTTGDVRPPRNVAGFRGTVRYASVNAHKNREMGRHDDLWSLFYMLVEFAVGQLPWRKIKDKEQVGMIKEKYEHRMLLKHMPSEFHLFLDHIASLDYFTKPDYQLIMSVFENSMKERGIAENEAFDWEKAGTDALL
B2: Brain Derived Tau Kinase (BDTK) (protein)
chain: MQCLAAALKDETNMSGGGEQADILPANYVVKDRWKVVKKIGGGGFGEIYEAMDLLTRENVALKVESAQQPKQVLKMEVAVLKKLQGKDHVCRFIGCGRNEKFNYVVMQLQGRNLADLRRSQPRGTFTLSTTLRLGKQILESIEAIHSVGFLHRDIKPSNFAMGRLPSTYRKCYMLDFGLARQYTNTTGDVRPPRNVAGFRGTVRYASVNAHKNREMGRHDDLWSLFYMLVEFAVGQLPWRKIKDKEQVGMIKEKYEHRMLLKHMPSEFHLFLDHIASLDYFTKPDYQLIMSVFENSMKERGIAENEAFDWEKAGTDALLSTSTSTPPQQNTRQTAAMFGVVNVTPVPGDLLRENTEDVLQGEHLSDQENAPPILPGRPSEGLGPSPHLVPHPGGPEAEVWEETDVNRNKLRINIGKSPCVEEEQSRGMGVPSSPVRAPPDSPTTPVRSLRYRRVNSPESERLSTADGRVELPERRSRMDLPGSPSRQACSSQPAQMLSVDTGHADRQASGRMDVSASVEQEALSNAFRSVPLAEEEDFDSKEWVIIDKETELKDFPPGAEPSTSGTTDEEPEELRPLPEEGEERRRLGAEPTVRPRGRSMQALAEEDLQHLPPQPLPPQLSQGDGRSETSQPPTPGSPSHSPLHSGPRPRRRESDPTGPQRQVFSVAPPFEVNGLPRAVPLSLPYQDFKRDLSDYRERARLLNRVRRVGFSHMLLTTPQVPLAPVQPQANGKEEEEEEEEDEEEEEEDEEEEEEEEEEEEEEEEEEEEEEEAAAAVALGEVLGPRSGSSSEGSERSTDRSQEGAPSTLLADDQKESRGRASMADGDLEPEEGSKTLVLVSPGDMKKSPVTAELAPDPDLGTLAALTPQHERPQPTGSQLDVSEPGTLSSVLKSEPKPPGPGAGLGAGTVTTGVGGVAVTSSPFTKVERTFVHIAEKTHLNVMSSGGQALRSEEFSAGGELGLELASDGGAVEEGARAPLENGLALSGLNGAEIEGSALSGAPRETPSEMATNSLPNGPALADGPAPVSPLEPSPEKVATISPRRHAMPGSRPRSRIPVLLSEEDTGSEPSGSLSAKERWSKRARPQQDLARLVMEKRQGRLLLRLASGASSSSSEEQRRASETLSGTGSEEDTPASEPAAALPRKSGRAAATRSRIPRPIGLRMPMPVAAQQPASRSHGAAPALDTAITSRLQLQTPPGSATAADLRPKQPPGRGLGPGRAQAGARPPAPRSPRLPASTSAARNASASPRSQSLRRESPSPSHQARPGVPPPRGVPPARAQPDGTPSPGGSKKGPRGKLQAQRATTKGRAGGAEGRAGAR

What was measured:
[1] = biological target: recombinant human tau (1-441), full length tau, P10636
[2] = biological target: T1, AA21 synthetic peptide (N21 with two conserved glycines replaced by alanine)
T1 chain: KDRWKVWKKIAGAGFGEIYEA

Chain of recombinant human tau (1-441), full length tau, P10636 (P10636 whole entry, looked up, tested part not stated): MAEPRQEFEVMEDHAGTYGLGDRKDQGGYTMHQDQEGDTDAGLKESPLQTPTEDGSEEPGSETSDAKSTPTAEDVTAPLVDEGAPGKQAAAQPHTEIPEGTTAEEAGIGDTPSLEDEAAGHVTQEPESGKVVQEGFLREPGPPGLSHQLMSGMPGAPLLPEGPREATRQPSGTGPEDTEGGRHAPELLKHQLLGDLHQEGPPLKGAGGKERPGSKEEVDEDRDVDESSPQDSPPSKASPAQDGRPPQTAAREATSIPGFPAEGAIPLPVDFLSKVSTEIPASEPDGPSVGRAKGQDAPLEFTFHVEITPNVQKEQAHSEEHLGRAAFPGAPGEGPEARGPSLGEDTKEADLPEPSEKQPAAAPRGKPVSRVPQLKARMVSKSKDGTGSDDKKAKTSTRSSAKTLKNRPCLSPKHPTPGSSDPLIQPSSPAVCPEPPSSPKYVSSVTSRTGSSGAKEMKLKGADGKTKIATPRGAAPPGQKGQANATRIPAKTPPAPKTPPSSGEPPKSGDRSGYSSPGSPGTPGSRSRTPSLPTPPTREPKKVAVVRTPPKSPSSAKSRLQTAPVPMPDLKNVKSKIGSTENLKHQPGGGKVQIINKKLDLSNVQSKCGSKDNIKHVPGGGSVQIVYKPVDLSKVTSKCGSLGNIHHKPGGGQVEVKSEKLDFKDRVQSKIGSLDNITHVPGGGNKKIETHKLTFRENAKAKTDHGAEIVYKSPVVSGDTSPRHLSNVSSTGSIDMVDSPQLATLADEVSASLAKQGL

Protein	tau phosphorylation in vitro ([gamma-32P]ATP, SDS-PAGE, autoradiography) [1]	time at which tau phosphorylation was saturated, pH 6.5 [1] [min at pH 6.5]	time at which tau phosphorylation was saturated, pH 7.5 [1]	tau phosphorylation [1]	BDTK phosphorylation and tau phosphorylation in vitro (AA21-BDTK, AA21-tau) [2]
B1	did phosphorylate tau protein as well as BDTK itself	120	tau phosphorylation was saturated at 60 min at pH 7.5		
B2				Full length BDTK (SEQ ID NO:1), and isolated BDTK kinase domain (amino acids 38-319, SEQ ID NO:4) are able to phosphorylate tau	AA21 mutated peptide rather increased both BDTK (AA21-BDTK, from 30 to 300 )µM) and tau phosphorylation (AA21-tau, from 30 µM to 1 µM) in dose response manner
